This data set is described as follows: label from the status in PepcDB records.

“MVIPALPKIEDQFSTSATTVAWITSAYLIVGAVASPVFGKLGDRYGKKKIYLLAIAFYSLAVLIAGFSTNIYMLIFARAIQGLGFAVFPIAIAIITDLFPRERVAWAQSILSATLALGPALGLLIGAYIVQDLGWQYAFHTAFILSIILMFISIRFIQEIPSKTKERIDYLGAVFLMLAVISLLVYLTEGPSIGWFSATQFSLILTSIISFGVFIFVERRVAEPLMKLDLFRIRNIMVANISGLIAGTAMFLMFIGLTYYAQLPKPYGLGLSIIDSGLLMAPVALTMMVVGPIVGRLINSTGPKPLLIFGSIVGIIGFLLLNAFNSTNIQVLLDTVVASVGIISLMIPLVNMVAVSLPEDQRGVGIGMNTLIRSIGSSVGPVISTVFMDTYTAWIGYLFNNQYLPIASVPSSEAFHYIYLVGICLMFINLLVALLTKNYVLKQKVKTTESVV”: the protein production entry is reported as “failed”.

In the case of “MVKGDITTAFIAEEYPDGFQGAVLDEPTLRRVAAAAAAMNRVAEIRRTRISGTMNNHERHVGVDWVVALQGESYHVSIAADREGSTVSFSDGSSLRVTSDWTPGQPLEHHHHHH”, the protein production result was “failed”.

On to “MVKGKVINLHPTSSRFFKIGIKHYERGEIELAIERLKRALELDSKNIEIKFNLAGLLAQIGDFESSNKLLTELTTDNPEFYDSLFGLGCNFFEMGKLREAKHFLRRYLKLSNNTEFKEAAEDLLDFIETQQEFEREQKEMEKLTKLLERGNFLLENGRYEDAVKYFKMILAKDDTIFAARNNLSLAYFYMGEIEKAIHEAKKVLEIDKYNVYANCNLAFFYSTIGKTKELKKQLKTILELKTYDHKDKIKVLDTLIKLNQHAAIVDRAGELFEITKEPYFRHIQAISLYNTKQYIKAKKIWKDLKKNYNMPEIKIDYFLKKIDDVMKTFKKDTIDYFETGFGNLSKLEEKEFRSQLQKHIDMYFSQTFEENAKRIMDIIAENVKLNNEDKDAISQLLNALPLEKQRLNFTAIAAIVYYVYKKYLLRQKVKQKDVAERFGISQAVFSKWFKEFKGLLLGEDV”, for which the protein production result is listed as “failed”.

As for “MVKGLVVAGALLMASGCQMLQSMMPAGDEEMPRVREGTLAALPATETRQVQGIEAGSGPTDDVSIETVMESYKALLPLVDDPRKQVTIRHRLADLEFQRAERKMADTAVDELAGAIEAYQRLLSEYPEREGNDKIYYQLARAWELRGATPQQLDTLDTLVRRYPDSDYWIEAQFRRGDLLFIDGRYREAEQAFDEVTLASQERMADASFLVNAHYMKGWSLFKQAQYQEALFSYVEVLDLVMPEGQPVEDVDQRSQTLIEDLFRVVGLSLSYLDGAETLQALFRQTGGRPYEILVYDRYSELLVEREQYGDAIDVFEAYIEDHPASPWAPRYHIRIIDTLELAGFTRTVPERKADFVSLYGIYSDYWQSAGPDAMGFIEQQLEQLLPELADRQYLLAGESSDQQQADDHYRKAASYYAEFAATFPDHPRTPERLFLLGETYLELEDWAEAIAAFERVAYDYPQDTVSGRAAEAGYASVLAFREYSITWNSLPISEQAAYQELQQLNRLRFANAFPEDPRAPAVYYIALQHEFDRNNWEETVNMAARLVTWQPTPSAELTTEALLLSGHSLSELARYSEAEQAYRDALATMAEDDERRSGVRENLAAAVYRQAEQLADAGNVEAAVGEFLRVGTVVPESALRANAEYDAASLLITANLWEQAIGVLTSFRQAFPDHELIDTVPAKLALAYRETAQWERAADELQQMVALATTPEERRENLLIAAELYDQAGNRDKAIDTWRNYANSHPEPADVYMEAANRLAELYQEADDTVKRDYWLRKQMETVDRNPDAADDRMRYLAASASATLAREALARYDSIRLTLPLNESMTAKTDALERAVNAYKKTASYGLSSFATEAGYQIAHIYGRLGADLMDSERPTGLSELELAQYELLLEEQAYPFEDNAIDIHEQNIRRAREGIFDEWVKRSYEALKVLLPGRYRKEEVTSGVVYELD”, the protein production result is “failed”.

“MVKKSYVINWARDLANRGVGVNYDGAFGSQCVDLPFWILGKFFGRPISGNAIDLLNSAKAAGYQVIYDAPGVNPRVGDIFVMHSIAYDGKDYGHTGLVIEDSDGHSIKTIEQNVDGNADNLYVGGPARYRTRSFNGIIGWIRPPYENEILENKREETDMRDFFVITNSEYTFAGVHYAKGAVLHVSPTQKRAFWVIADQENFIKQVNKNIEYVEKNASPAFLQRIVEIYQVKFEGKNVH”: the protein production entry is listed as “not failed”.

With “MVKPLRLNDRHQQILRATVQHYIATAEPVGSHTLAQEYQFAVSSATIRNALGQLEKAGLLYQPHVSAGRVPSDSGYRIYVDNLLTWSDRQSRTVKQRLENEINGDNWHFEALIQRMGQILAGLSGYIALITFPQTETVQLRHLQLMLLPSHQILIILVTDSYHTHSATLDLPAAMEAKEEGELEQELAIFSNFLNAQLRGKNLSELSHLNWQELDQKFSIYADFLKGLQQQIKPLLQRRMAGPLVVHGVSKVIQQPEFSQLEQVQMLLSLLEQEQDKLFSLLFDPDNYGDNLANLGQEMNLLTGETMPKTRPVVTIRIGAENPLESMHPCTLVSAIYRQQEIPMGSVSILGPTRMVYQQTIPLVEQAAECLSEALSKN”, the protein production entry is on record as “failed”.

As for “MVKSIVILIETVTMKIPAVYSDGSFKTFNDSETTAQKLVDSGVVNTFAFGPTLVENGKVAVSENEEVGQDMADNPRTAIVVNEESDRSVHYIVIVSDGRTSESSGLTLYEMAELMKSYGVMTGYNLDVGDSSTMYSNGQVINKPTRKRKQNLRKGGERYRLHRLLKNLLASTFSPPILVLEHHHHHH”, the protein production entry is reported as “not failed”.

Consider “MVLFHLIKKESLQIFRNRTALLMMVIFPILMIVILSFAFKSSFNTATTVPKLTIRYQLEGEKTDYQKNFLAFLKVLNQKLHLETKPSNSLEKDRQRVSEGALTAVLEVKKNQTIKVITNNINQQNADLINMLVKNYVDNAKTYDSIAALYPQQLNHIRKRSVDYVKVSSIQTSKGMTSADYYAISMFTMITFYSMMSAMNLVLSDRQQRITNRIHLTGVSPSFLVFGKLIGAMLATTVQLSLLYIFTRFVLRVNWGTNEWMLIGITASLVYLSVAIGIGLGISIKNEAFLTVASNTIIPIFAFLGGSYVPLTTLHSSIINQLSNISPIKWVNDSLFYLIFGGQYNPIPVTLIVNISIGTIFIILALIGMRKQVTT”, for which the protein production result was “failed”.

Take “MVLKERHKKICLLPSYSRLAHYPGLLMLTTLIYRSHIRGDEPVKKIEEMVSIANRRNMRSDVTGILLFNGSHFFQLLEGPEEQVQMIYRAICQDPRHYNIVELLCDYAPARRFGKAGMELFDLRLHERDDVLQAVFDKGTSKFQLTYDDRALQFFRTFVLATEQSTYFEIPAEDSWLFIADGSDKELDSCTLSSNINDHFAFHPIVDPLSRRIIAFEAIVQKNEDSPSAIAVGQRKDEEIYTADLKSKALAFAMAHALKLGDKMISINLLPMTLVNKPDAVSFLLDEIKANALVPEQIIVEFTESEVISRFDEFAEAVKSLKAAGISVAIDHFGAGFAGLLLLSRFQPDRIKISQELITNVHKSGPRQAIIQAIMKCCTSLEIQVSAMGVATPEEWMWLESAGIEMFQGDLFSKAKLNGIPSVAWPEKK”: the protein production result is reported as “failed”.

“MVLVILDFVVEWRDRVMVRWWSLLLDQGIEWSVKVVKRLLDQGVEWFDMIRGCQSSPLLLLAIKMCTEATKSSQIIMMGVNLRSLKDGFIDKGNSRVHLMANMRKANSLDDDSKPDIHSRDRDPHNYTTS”: the protein production entry is given as “failed”.

For the sequence “MVMARNRNSNQLASHGAQAALDQMKYEIAQEFGVQLGADTSSRANGSVGGEITKRLVAMAEQQLGGGYTRLEHHHHHH”, the protein production entry was “not failed”.

As for “MVMMFIGIDDTDSPNKYCTTYIATLLIEELKGCGYSVDMPKLIRMNPMVKYKTRGNGGVAIHILDELYSKDKEEIKNITISLVEKYTDFECENTNPGIVFLDEAKYKENREKLTNYYKKVLYDIVSVDYAEKFILKVGGEFIKYKLGRGIIGALGAISSTPPYTYELLAYRKKEMWGKKREIDEKSVIEMDKETFPYTFDNYDYENEKILIAPNTPCPVLFGIRGIDAEILLKAMHKIEGEKPERFMIFKTNHGTDVHLRKMNIKDIYPNTGVIVYGRVVEEPRDIEGGHVIFKLSDGTGEIDCMAYEPTKGFRDIIRKLIVGDYIAVYGTVREKPLGINIEKIKILKLEKKFVKDKRCPYCGGTLKAKGKKAGYKCKKCKKTIAYDEIKMIEVERDLKTGFYEVPGSARRHLSKPIQLIDLI”, the protein production result is on record as “not failed”.

For the sequence “MVMNKLILFGSIFFKCWQQNRISISAGYLTYNTMLALVPLVMVVFSVFTFFPIFTEATELLKTFVYDNFAPNAGNVVEEYVELFVSNSQKMGLVSMLGLFIVAVMLISSIDQSLNDIWHNTRKRSLLLSFLLYILILIFAPLLAGASIAITTYIMSFEVFSENGIFSFSHYLLEYAPFLLVWLLFTLVYWIVPNTTVAFRHATIGALFAASFFTLGKQAFIWYVVTFPSYQAIYGTLAVLPIMIVWIHLSWQVVLLGGQFAAVLKEINMLKENER”, the protein production entry was “not failed”.

Values taken from a protein production outcome set (Wang et al. 2014).
